These results are taken from PMC3307728.

In data set [1] the target is T1, DEAF1-FLAG (human, UniProt O75398 1-565).
T1 sequence: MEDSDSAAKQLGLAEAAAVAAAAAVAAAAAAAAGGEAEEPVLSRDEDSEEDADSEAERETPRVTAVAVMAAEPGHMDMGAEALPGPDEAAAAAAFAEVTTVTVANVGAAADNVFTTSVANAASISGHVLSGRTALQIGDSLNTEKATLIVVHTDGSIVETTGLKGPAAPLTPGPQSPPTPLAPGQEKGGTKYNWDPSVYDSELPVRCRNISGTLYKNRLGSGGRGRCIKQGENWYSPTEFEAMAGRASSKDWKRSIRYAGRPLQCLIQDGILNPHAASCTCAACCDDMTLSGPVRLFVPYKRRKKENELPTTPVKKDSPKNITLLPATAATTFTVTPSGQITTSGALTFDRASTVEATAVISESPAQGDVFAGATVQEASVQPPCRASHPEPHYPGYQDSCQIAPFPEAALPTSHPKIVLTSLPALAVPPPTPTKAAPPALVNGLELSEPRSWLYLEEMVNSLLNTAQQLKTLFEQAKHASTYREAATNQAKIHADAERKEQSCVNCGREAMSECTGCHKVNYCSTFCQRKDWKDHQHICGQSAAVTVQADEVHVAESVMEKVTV
Briefly: EMSA; no shift; EMSA: 100 mM KCl, 50 mM Tris pH 7.5, 1 mM DTT, 25 °C, 30 min protein preincubation then 30 min with 32P probe; 4% native gel. The conditions noted are these: protein: recombinant; tags: FLAG (C-terminal, from the name DEAF1-FLAG; also written FLAG-DEAF1); chain copies: 2; label: 32P in EMSA.

For another data set, the target named is Ku70;FLAG-Ku80 (human?;human?, UniProt P12956;P13010 1-609;1-732, |). Nature of the data set: EMSA; DNA end binding; EMSA: 100 mM KCl, 50 mM Tris pH 7.5, 1 mM DTT, 25 °C, 30 min protein preincubation then 30 min with 32P probe; 4% native gel. The conditions noted are these: protein: recombinant;recombinant; tags: none;FLAG (N-terminal, from the name); copies: 1;1; label: 32P in EMSA. Background: Mobility shift assays separate free from complexed probe on a gel.
Chain of Ku70;FLAG-Ku80 (P12956 whole entry, chain 1 of 2): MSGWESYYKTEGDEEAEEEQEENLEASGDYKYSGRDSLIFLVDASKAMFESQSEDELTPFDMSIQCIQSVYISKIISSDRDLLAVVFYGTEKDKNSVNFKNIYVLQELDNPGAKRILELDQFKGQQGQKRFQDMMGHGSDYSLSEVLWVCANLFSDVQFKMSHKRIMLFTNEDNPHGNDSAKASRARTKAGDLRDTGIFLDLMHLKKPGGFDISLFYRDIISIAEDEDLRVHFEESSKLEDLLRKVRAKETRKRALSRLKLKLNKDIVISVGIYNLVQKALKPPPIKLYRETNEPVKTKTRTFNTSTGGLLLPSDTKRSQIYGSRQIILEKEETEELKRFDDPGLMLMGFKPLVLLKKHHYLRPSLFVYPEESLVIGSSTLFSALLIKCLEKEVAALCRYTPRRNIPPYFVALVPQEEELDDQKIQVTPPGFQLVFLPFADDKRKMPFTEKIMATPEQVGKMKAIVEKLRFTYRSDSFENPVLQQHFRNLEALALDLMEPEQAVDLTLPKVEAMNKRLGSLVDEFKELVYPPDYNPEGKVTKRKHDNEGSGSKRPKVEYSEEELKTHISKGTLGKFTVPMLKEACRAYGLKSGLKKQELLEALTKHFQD
Chain of Ku70;FLAG-Ku80 (P13010 whole entry, chain 2 of 2): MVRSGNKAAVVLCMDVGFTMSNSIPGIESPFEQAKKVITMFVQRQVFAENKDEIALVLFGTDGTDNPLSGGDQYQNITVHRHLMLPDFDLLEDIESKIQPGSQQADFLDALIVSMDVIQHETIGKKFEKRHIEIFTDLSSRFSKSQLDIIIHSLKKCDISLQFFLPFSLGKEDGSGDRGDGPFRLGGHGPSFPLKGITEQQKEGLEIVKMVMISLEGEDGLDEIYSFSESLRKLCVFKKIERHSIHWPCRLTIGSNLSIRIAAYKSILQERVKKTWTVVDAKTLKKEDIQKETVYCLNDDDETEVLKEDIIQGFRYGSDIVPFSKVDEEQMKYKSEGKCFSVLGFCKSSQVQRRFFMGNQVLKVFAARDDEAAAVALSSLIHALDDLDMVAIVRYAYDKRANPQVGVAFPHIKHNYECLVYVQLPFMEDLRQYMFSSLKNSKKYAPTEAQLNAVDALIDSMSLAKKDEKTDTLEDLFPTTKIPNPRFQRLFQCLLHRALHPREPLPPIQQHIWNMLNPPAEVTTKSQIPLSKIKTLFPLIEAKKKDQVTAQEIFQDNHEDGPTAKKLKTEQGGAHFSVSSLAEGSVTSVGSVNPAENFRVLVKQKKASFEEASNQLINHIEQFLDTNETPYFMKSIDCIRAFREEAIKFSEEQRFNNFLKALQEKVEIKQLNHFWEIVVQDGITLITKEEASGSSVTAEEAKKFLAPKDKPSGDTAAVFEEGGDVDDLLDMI

Data set [2] has as its target T1, DEAF1-FLAG. Briefly: EMSA; doublet of shifted bands; EMSA: 100 mM KCl, 50 mM Tris pH 7.5, 1 mM DTT, 25 °C, 30 min protein preincubation then 30 min with 32P probe; 4% native gel. The conditions noted are these: protein: recombinant; tags: FLAG (C-terminal, from the name DEAF1-FLAG; also written FLAG-DEAF1); chain copies: 2; label: 32P in EMSA.

B1: Mut 2 (dsDNA)
DNA 1: TTTTGCTTCCCACTTTTG
DNA 2: CAAAAGTGGGAAGCAAAA
For the molecule B1, the binding result with DEAF1-FLAG [1] is “no binding”; with Ku70;FLAG-Ku80, “binds”.

B2: N52-69 (dsDNA)
DNA 1: TTCGGCTTCCCACTTCGG
DNA 2: CCGAAGTGGGAAGCCGAA
Regarding B2, the binding result with Ku70;FLAG-Ku80 and in the data set with DEAF1-FLAG [2] was “binds” in each case.
